Values of other authors, collected in paper PMC3784502.

Target: APC 15-aa repeat region (Homo sapiens) (UniProt P25054)
Chain of UniProt P25054 (P25054 1020-1169): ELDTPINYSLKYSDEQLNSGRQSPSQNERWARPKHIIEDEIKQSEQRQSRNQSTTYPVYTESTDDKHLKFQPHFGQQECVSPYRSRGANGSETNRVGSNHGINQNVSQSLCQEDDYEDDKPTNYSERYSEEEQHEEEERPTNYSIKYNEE

Kd: 273 nM
Substance: β-catenin ARM repeats 5-9 (from UniProt P35222)
